Measurements reported in patent US20120100141A1 (GlaxoSmithKline, published 2012).

Experiments:
Assay in all cases: melanophore functional bioassay, transfected cells (data not shown)
Human NPY1R = target: T1, Human NPY1R (human, UniProt P25929 1-384)
T1 construct: whole, on cells; also called NPY1R (human)
T1 sequence (looked up): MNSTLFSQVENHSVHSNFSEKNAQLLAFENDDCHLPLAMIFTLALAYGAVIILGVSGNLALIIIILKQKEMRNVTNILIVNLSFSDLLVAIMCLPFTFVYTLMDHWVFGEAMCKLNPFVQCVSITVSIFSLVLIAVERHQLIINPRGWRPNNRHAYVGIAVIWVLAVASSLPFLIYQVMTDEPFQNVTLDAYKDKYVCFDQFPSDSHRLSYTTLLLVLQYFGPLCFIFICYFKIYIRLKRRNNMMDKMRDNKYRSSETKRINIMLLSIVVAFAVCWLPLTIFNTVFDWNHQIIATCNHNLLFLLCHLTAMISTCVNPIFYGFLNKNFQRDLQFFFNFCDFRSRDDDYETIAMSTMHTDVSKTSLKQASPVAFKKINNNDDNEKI
Description: (§1) For assaying purposes cells were washed, trypsinized and resuspended in 0.7×EPG PBS at a concentration of 15×10⁶ cells per ml. 800 μl of cells were gently mixed with 20-40 μg of cDNA and incubated on ice for 20 minutes. […] After 2 hours they were placed in a sealed container in the incubator overnight (25° C., 0% CO2). The following day media was aspirated and 25 μl MAB (Melanophore Assay Buffer) containing 1% DMSO and 10 nM melatonin was added to each well. Cells were incubated for one hour and basal transmittance was measured on a SLT Spectra plate reader at 620 nm. Next, a dilution series (12 point series using 3 fold dilution intervals in MAB) containing 25 μl of a 2× concentration peptides and standards were added directly to each well. Standards included melatonin 10 nM, MSH 200 nM and MAB and were used to establish assay system Minimum, Maximum, and basal response levels, respectively. Following addition of peptides and standards, plates were incubated for 1 hour and transmittance measured as before. Data was analyzed using Robosage (version 7.3.2) by calculating (1−Tf/Ti) where Ti is initial baseline read, and Tf is the response read.

Mouse NPY1R = target: T2, Mouse NPY1R (mouse, UniProt Q04573 1-382)
T2 construct: whole, on cells; also called NPY1R (mouse)
T2 sequence (looked up): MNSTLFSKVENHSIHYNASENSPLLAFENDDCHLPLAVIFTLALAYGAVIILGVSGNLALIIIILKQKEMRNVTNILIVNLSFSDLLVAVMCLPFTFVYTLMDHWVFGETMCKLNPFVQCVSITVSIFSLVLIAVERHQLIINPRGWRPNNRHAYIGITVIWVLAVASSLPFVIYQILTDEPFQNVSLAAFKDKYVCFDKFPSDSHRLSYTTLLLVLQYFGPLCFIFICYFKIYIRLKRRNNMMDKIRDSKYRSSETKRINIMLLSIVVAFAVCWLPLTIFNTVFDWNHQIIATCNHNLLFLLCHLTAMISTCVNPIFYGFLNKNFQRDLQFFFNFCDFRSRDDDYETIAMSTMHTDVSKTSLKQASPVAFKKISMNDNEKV
Description: as §1

Human NPY2R = target: T3, Human NPY2R (human, UniProt P49146 1-381)
T3 construct: whole, on cells; also called NPY2R (human)
T3 sequence (looked up): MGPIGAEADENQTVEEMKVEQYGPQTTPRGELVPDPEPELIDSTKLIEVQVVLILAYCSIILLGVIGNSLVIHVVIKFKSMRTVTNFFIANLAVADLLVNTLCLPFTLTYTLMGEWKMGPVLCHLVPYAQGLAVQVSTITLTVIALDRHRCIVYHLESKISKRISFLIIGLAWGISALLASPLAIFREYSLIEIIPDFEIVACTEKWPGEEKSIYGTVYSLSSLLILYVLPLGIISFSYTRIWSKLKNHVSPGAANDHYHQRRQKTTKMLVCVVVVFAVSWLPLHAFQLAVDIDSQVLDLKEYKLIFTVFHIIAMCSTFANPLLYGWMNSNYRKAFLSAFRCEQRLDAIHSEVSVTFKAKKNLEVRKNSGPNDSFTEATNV
Description: as §1

Mouse NPY2R = target: T4, Mouse NPY2R (mouse, UniProt P97295 1-381)
T4 construct: whole, on cells; also called NPY2R (mouse)
T4 sequence (looked up): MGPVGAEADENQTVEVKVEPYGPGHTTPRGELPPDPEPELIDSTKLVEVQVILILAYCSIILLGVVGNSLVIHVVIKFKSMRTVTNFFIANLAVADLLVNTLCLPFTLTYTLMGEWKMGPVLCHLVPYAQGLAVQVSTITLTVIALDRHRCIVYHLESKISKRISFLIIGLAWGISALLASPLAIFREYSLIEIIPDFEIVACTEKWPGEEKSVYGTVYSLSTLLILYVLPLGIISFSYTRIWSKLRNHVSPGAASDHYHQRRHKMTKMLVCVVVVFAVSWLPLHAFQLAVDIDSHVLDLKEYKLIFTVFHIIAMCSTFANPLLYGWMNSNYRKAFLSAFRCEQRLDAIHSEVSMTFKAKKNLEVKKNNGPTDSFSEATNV
Description: as §1

Human NPY4R = target: T5, Human NPY4R (human, UniProt P50391 1-375)
T5 construct: whole, on cells; also called NPY4R (human)
T5 sequence (P50391 whole entry): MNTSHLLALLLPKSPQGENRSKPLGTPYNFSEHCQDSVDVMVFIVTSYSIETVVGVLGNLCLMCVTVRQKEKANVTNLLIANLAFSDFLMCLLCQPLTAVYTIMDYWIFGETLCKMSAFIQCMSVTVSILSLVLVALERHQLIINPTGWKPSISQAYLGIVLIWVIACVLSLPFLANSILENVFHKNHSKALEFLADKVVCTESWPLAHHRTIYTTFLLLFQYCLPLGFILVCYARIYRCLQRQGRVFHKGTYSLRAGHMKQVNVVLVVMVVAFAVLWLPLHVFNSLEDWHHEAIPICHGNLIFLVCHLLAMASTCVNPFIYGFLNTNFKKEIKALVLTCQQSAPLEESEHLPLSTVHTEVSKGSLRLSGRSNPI
Description: as §1

Mouse NPY4R = target: T6, Mouse NPY4R (mouse, UniProt Q61041 1-375)
T6 construct: whole, on cells; also called NPY4R (mouse)
T6 sequence (Q61041 whole entry): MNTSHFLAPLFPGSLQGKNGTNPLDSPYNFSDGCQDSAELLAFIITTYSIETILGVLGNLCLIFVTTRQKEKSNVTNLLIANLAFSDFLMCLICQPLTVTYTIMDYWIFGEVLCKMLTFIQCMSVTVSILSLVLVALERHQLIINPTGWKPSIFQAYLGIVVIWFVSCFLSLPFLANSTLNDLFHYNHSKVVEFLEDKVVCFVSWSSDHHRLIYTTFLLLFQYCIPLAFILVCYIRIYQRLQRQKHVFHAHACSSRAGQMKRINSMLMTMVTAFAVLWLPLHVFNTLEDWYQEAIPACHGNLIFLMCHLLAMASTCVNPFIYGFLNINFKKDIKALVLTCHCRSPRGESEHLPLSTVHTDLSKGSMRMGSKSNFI
Description: as §1

Human NPY5R = target: T7, Human NPY5R (human, UniProt Q15761 1-445)
T7 construct: whole, on cells; also called NPY5R (human)
T7 sequence (looked up): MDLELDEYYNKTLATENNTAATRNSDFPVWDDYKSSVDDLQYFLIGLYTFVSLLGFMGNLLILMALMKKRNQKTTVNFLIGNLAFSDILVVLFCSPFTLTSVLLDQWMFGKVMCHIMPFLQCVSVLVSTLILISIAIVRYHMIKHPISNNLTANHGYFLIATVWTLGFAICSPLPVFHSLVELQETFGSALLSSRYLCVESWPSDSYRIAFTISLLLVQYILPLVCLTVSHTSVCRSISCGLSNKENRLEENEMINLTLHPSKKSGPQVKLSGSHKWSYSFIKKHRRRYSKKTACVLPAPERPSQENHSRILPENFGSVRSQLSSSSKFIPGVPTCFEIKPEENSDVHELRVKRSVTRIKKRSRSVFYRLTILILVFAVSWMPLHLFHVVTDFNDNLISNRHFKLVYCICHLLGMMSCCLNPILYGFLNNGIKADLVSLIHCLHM
Description: as §1

Mouse NPY5R = target: T8, Mouse NPY5R (mouse, UniProt O70342 1-466)
T8 construct: whole, on cells; also called NPY5R (mouse)
T8 sequence (looked up): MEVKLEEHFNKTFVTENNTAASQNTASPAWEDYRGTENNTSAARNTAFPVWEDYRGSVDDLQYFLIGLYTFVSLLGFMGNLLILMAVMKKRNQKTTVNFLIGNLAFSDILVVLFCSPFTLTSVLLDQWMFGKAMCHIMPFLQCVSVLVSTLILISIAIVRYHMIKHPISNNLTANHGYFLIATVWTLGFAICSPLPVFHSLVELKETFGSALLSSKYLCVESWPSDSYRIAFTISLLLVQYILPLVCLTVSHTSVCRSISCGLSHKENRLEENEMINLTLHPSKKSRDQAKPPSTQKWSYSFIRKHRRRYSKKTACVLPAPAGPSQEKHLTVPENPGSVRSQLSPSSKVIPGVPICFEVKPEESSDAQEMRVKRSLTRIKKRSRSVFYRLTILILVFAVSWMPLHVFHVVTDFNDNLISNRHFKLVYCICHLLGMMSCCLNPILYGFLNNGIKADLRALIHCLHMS
Description: as §1

Measured: binding result

B1: PYY (3-36) DOM7h-14-10 (R108C) AlbudAb peptide conjugate DMS7605 (other)
chain: DIQMTQSPSSLSASVGDRVTITCRASQWIGSQLSWYQQKPGKAPKLLIMWRSSLQSGVPSRFSGSGSGTDFTLTISSLQPEDFATYYCAQGLRHPKTFGQGTKVEIKC
peptide: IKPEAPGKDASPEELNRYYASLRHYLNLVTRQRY
modifications: C-terminal amide; lysine at position 10 derivatised with the 4 repeat PEG linker to the dAb cysteine; free C-terminal cysteine (R108C) coupled through maleimide to a 4 repeat PEG linker that is attached to the lysine at position 10 of the PYY peptide
notes: Chemical conjugate, not a genetic fusion; The dAb was made in E. coli, the peptide and PEG linker by chemical synthesis; also called DMS7167:PYY3-36; PYY(3-36) AlbudAb
binds: all assays above
